# B1: wild-type (WT) bFGF-21 (ligand)
# chain: HPIPDSSPLLQFGGQVRQRYLYTDDAQETEAHLEIRADGTVVGAARQSPESLLELKALKPGVIQILGVKTSRFLCQGPDGKLYGSLHFDPKACSFRELLLEDGYNVYQSETLGLPLRLPPQRSSNRDPAPRGPARFLPLPGLPAAPPDPPGILAPEPPDVGSSDPLSMVGPSYGRSPSYTS
# Target: beta Klotho and FGFR1c (Fibroblast Growth Factor Receptor isoform 1c) expressed on the cell surface of a …
# Assay: cell-based or functional assay
binder,measurement,value
B1,"EC50 (ng/mL), STEADY-GLO Elk1 luciferase reporter assay",38 ng/mL
same,"Fold loss potency relative to WT bFGF21, Elk1 luciferase reporter assay",1 fold
